The record followed here is article PMC12736101.

This series in a line: SEC; Superdex 200 10/300 GL, phosphate-buffered saline, 0.5 mL/min, ambient temperature, UV 280 nm; the SEC 'monomer' peak is the native covalent dimer. (Size exclusion chromatography separates by hydrodynamic size, large species first.)

Chain of dulaglutide, original reference drug (Trulicity) (chain): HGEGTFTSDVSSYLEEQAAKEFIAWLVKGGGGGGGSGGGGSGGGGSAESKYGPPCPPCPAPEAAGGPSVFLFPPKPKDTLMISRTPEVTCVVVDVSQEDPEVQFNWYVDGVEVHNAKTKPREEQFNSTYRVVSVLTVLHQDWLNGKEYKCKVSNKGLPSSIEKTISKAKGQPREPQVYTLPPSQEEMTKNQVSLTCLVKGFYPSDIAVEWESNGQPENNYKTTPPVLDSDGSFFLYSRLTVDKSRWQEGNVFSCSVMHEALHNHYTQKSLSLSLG

Consider “dulaglutide, original reference drug (Trulicity)”, for which the “percent in the SEC 'monomer' peak (the native covalent dimer)” value is given as 97.5% monomeric form in the Trulicity sample.
